According to patent US20240254222A1 (Bayer, published 2024):

T1: Rat Semaphorin3A-Sema Domain, TPP-19120 (rat, UniProt Q63548 21-569)
T1 construct: produced inhouse
T1 sequence: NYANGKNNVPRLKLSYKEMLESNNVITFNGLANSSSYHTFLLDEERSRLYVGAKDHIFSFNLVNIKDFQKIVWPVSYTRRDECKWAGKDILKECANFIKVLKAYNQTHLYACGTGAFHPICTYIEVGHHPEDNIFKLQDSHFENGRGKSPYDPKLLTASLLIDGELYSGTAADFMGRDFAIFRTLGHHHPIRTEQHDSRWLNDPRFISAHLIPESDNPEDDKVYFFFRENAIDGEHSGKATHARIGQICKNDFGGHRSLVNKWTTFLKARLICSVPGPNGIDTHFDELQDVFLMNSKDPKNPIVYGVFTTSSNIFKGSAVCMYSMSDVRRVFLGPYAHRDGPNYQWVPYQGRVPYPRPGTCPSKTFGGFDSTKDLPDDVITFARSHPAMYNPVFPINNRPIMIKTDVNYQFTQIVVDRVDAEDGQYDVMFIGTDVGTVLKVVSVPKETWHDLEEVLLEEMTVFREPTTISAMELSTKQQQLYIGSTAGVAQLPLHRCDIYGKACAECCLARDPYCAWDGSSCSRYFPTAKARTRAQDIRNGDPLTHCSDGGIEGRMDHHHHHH

T2: human wild-type Sema3A of SEQ ID NO: 600, expressed by HEK293 cells (human, UniProt Q14563 22-771, limits assumed)
T2 sequence: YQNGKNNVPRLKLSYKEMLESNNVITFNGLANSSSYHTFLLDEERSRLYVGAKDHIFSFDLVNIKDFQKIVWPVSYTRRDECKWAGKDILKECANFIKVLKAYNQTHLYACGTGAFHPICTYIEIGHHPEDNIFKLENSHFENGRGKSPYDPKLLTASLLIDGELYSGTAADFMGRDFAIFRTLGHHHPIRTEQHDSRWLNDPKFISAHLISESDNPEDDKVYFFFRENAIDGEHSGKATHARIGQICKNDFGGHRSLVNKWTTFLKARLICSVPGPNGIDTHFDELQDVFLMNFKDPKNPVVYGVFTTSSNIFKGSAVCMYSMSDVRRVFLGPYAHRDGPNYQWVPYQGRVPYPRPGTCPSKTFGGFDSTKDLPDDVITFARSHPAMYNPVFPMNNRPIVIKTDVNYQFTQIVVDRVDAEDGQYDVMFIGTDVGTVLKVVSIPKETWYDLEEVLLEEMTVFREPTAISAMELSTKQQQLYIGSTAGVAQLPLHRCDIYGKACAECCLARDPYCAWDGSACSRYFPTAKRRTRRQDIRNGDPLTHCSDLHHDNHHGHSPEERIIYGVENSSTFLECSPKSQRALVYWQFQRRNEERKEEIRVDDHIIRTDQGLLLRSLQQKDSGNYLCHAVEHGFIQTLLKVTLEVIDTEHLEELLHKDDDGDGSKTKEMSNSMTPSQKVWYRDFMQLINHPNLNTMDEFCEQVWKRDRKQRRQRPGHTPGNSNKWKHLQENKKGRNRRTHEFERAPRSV


Molecular target: T1, Rat Semaphorin3A-Sema Domain, TPP-19120
Experiment: SPR, captured antibody, Sema3A domain analyte
Summary of the method: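 Antibodies captured on anti-human Fc surface, monovalent Sema3A domain (human, mouse, cyno, rat, dog, pig) injected at 0.024-3.125 nM, multi-cycle kinetics, 25° C, HBS P+ with 300 mM NaCl, CaCl₂, MgCl₂, BSA. Double-referenced sensorgrams fitted 1:1 Langmuir; binding activity = experimental RMax / theoretical RMax.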

Row | Binder | Binding Activity [%]
1 | TPP-17755 (antibody, human IgG1, lambda, V domains shown, also called Samsung; Samsung Prior Art F11) VH: EVQLLESGGGLVQTGGSLRLSCAASGFTFSDYAMSWVRQAPGKGLEWVSWIYYDSGSKYYADSVKGRFTISRDNSKNTLYLQMNSLRAEDTAVYYCAKLNGDFDYWGQGTLVTVSS VL: QSVLTQPPSASGTPGQRVTISCSGSSSNIGNNDVSWYQQLPGTAPKLLIYADSHRPSGVPDRFSGSKSGTSASLAISGLRSEDEADYYCGAWDSSLSGYVFGGGTKLTVLG | 56%
2 | TPP-11489 (antibody, human IgG1, lambda, human IgG1; also called Chiome; Chiome Prior Art (hIgG1)) heavy: not shown light: SYELTQPPSVSVSPGQTARITCSGGGSYTGSYYYGWYQQKPGQAPVTVIYYNNKRPSDIPERFSGSLSGTTNTLTISGVQAEDEADYYCGSADNSGDAFGTGTKVTVLGQPKAAPSVTLFPPSSEELQANKATLVCLISDFYPGAVTVAWKADSSPVKAGVETTTPSKQSNNKYAASSYLSLTPEQWKSHRSYSCQVTHEGSTVEKTVAPTECS | 31%
3 | TPP-30788 (antibody, human IgG1, kappa, V domains shown, prior art, WO 2020/225400; also called BI clone I; Böhringer (BI) Clone I) VH: EVQLVESGGGLVQPGGSLRLSCAASGFTFSSYYMSWVRQAPGKGLEWVSTIIKSGGYAYYPDSVKDRFTISRDNSKNTLYLQMSSLRAEDTAVYYCVRGGQGAMDYWGQGTTVTVSS VL: EIVLTQSPATLSLSPGERATLSCRASQSIGDYLHWYQQKPGQAPRLLIKYASQSISGIPARFSGSGSGTDFTLTITSLEPEDFAVYYCQQGYSFPYTFGGGTKLEIKR | 109%
4 | TPP-15370 (antibody, human IgG1, lambda, V domains shown, human IgG1; also called IgG1, hit from panning; parental mAb) VH: EVQLLESGGGLVQPGGSLRLSCAASGFTFSSYGMHWVRQAPGKGLEWVSAIGTGGDTYYADSVMGRFTISRDNSKNTLYLQMNSLRAEDTAVYYCARRDDYTSRDAFDVWGQGTLVTVSS VL: not shown | 113%
5 | TPP-23298 (antibody, human IgG4 S228P, lambda, V domains shown) VH: EVQLLESGGGLVQPGGSLRLSCAASGFTFYSYAMSWVRQAPGKGLEWVSAIGTGGDTYYADSVKGRFTISRDNSKNTLYLQMNSLRAEDTAVYYCARRDDYTSRDAFDYWGQGTLVTVSS VL: not shown | 108%
6 | TPP-15374 (antibody, human IgG1, lambda, V domains shown, human IgG1; also called IgG1, hit from panning; parental mAb) VH: EVQLLESGGGLVQPGGSLRLSCAASGFTFSSYEMNWVRQAPGKGLEWVSGISWNSGSIGYADSVKGRFTISRDNSKNTLYLQMNSLRAEDTAVYYCARSGYSSSWFDPDFDYWGQGTLVTVSS VL: QSVLTQPPSASGTPGQRVTISCTGSSSNIGAGYDVHWYQQLPGTAPKLLIYGNSNRPSGVPDRFSGSKSGTSASLAISGLRSEDEADYYCSSYAGSNPYVVFGGGTKLTVLG | 94%

The remaining lines, values ahead:

Row | Binding Activity [%] | Binder
7 | 94% | TPP-30790 (antibody, human IgG1, kappa, V domains shown, prior art, WO 2020/225400; also called BI clone III; Böhringer (BI) Clone III) VH: EVQLVESGGGLVQLGGSLRLSCAASGFTFSSYYMSWVRQAPGKGLEWVSTIIKSGGYAYYPDSVKDRFTISRDNSKNTLYLQMNSLRAEDTAVYYCVKGGQGAMDYWGQGTTVTVSS VL: EIVLTQSPATLSLSPGERATLSCRASQSIGDYLHWYQQKPGQAPRLLIYYASQSISGIPARFSGSGSGTDFTLTISSLEPEDFAVYYCQQGYSFPYTFGGGTKLEIKR
8 | 109% | TPP-30791 (antibody, human IgG1, kappa, V domains shown, prior art, WO 2020/225400; also called BI clone IV; Böhringer (BI) Clone IV) VH: EVQLVESGGGLLQLGGSLRLSCAASGFTFSSYYMSWVRQAPGKGLEWVSTIIKSGGYAYYPDSVKDRFTISRDNSKNTLNLQMNSLRAEDTAVYYCVKGGQGAMDYWGQGTTVTVSS VL: EIVLTQSPATLSLSPGERATLSCRASQSIGDYLHWYQQKPGQAPRLLIKYASQSISGIPARFSGSGSGTDFTLTISSLEPEDFAVYYCQQGYSFPYTFGGGTKLEIKR
9 | 104% | TPP-30789 (antibody, human IgG1, kappa, V domains shown, prior art, WO 2020/225400; also called BI clone II; Böhringer (BI) Clone II) VH: EVQLVESGGGLVQPGGSLRLSCAASGFPFSSYYMSWVRQAPGKGLEWVSTIIKSGGYAYYPDSVKDRFTISRDNSKNTLYLQMSSLRAEDTAVYYCVRGGQGAMDYWGQGTTVTVSS VL: EIVLTQSPATLSLSPGERATLSCRASQSIGDYLHWYQQKPGQAPRLLIKYASQSISGIPARFSGSGSGTDFTLTITSLEPEDFAVYYCQQGYSFPYTFGGGTKLEIKR

Molecular target: T2, human wild-type Sema3A of SEQ ID NO: …
Experiment: cell-based or functional assay

Row | Binder | EC50 (pM), HUVEC repulsion assay
10 | TPP-23337 (antibody, human IgG4 S228P, lambda, V domains shown) VH: EVQLLESGGGLVQPGGSLRLSCAASGFTFSSYAMSWVRQAPGKGLEWVSAIGYGGDTYYADSVKGRFTISRDNSKNTLYLQMNSLRAEDTAVYYCARRDDYTSRDAFDYWGQGTLVTVSS VL: not shown | 170 pM
11 | TPP-15370 (antibody, human IgG1, lambda, V domains shown, human IgG1; also called IgG1, hit from panning; parental mAb) VH: EVQLLESGGGLVQPGGSLRLSCAASGFTFSSYGMHWVRQAPGKGLEWVSAIGTGGDTYYADSVMGRFTISRDNSKNTLYLQMNSLRAEDTAVYYCARRDDYTSRDAFDVWGQGTLVTVSS VL: not shown | 800 pM
12 | TPP-23341 (antibody, human IgG4 S228P, lambda, V domains shown) VH: EVQLLESGGGLVQPGGSLRLSCAASGFTFSSYAMSWVRQAPGKGLEWVSAIGYGGDTYYADSVKGRFTISRDNSKNTLYLQMNSLRAEDTAVYYCARRDDYTSRDAFDYWGQGTLVTVSS VL: not shown | 113 pM
13 | TPP-23298 (antibody, human IgG4 S228P, lambda, V domains shown) VH: EVQLLESGGGLVQPGGSLRLSCAASGFTFYSYAMSWVRQAPGKGLEWVSAIGTGGDTYYADSVKGRFTISRDNSKNTLYLQMNSLRAEDTAVYYCARRDDYTSRDAFDYWGQGTLVTVSS VL: not shown | 80 pM
14 | TPP-23334 (antibody, human IgG4 S228P, lambda, V domains shown) VH: EVQLLESGGGLVQPGGSLRLSCAASGFTFSSYAMSWVRQAPGKGLEWVSAIGYGGDTYYADSVKGRFTISRDNSKNTLYLQMNSLRAEDTAVYYCARRDDYTSRDAFDYWGQGTLVTVSS VL: not shown | 120 pM
15 | TPP-23340 (antibody, human IgG4 S228P, lambda, V domains shown) VH: EVQLLESGGGLVQPGGSLRLSCAASGFTFSSYAMSWVRQAPGKGLEWVSAIGYGGDTYYADSVKGRFTISRDNSKNTLYLQMNSLRAEDTAVYYCARRDDYTSRDAFDYWGQGTLVTVSS VL: not shown | 180 pM

Continued, values first:

Row | EC50 (pM), HUVEC repulsion assay | Binder
16 | 180 pM | TPP-23373 (antibody, human IgG4 S228P, lambda, V domains shown) VH: EVQLLESGGGLVQPGGSLRLSCAASGFTFYSYAMSWVRQAPGKGLEWVSAIGYGGDTYYADSVKGRFTISRDNSKNTLYLQMNSLRAEDTAVYYCARRDDYTSRDAFDYWGQGTLVTVSS VL: not shown
17 | 123 pM | TPP-23375 (antibody, human IgG4 S228P, lambda, V domains shown) VH: EVQLLESGGGLVQPGGSLRLSCAASGFTFYSYAMSWVRQAPGKGLEWVSAIGYGGDTYYADSVKGRFTISRDNSKNTLYLQMNSLRAEDTAVYYCARRDDYTSRDAFDYWGQGTLVTVSS VL: not shown
18 | 77 pM | TPP-23374 (antibody, human IgG4 S228P, lambda, V domains shown) VH: EVQLLESGGGLVQPGGSLRLSCAASGFTFYSYAMSWVRQAPGKGLEWVSAIGYGGDTYYADSVKGRFTISRDNSKNTLYLQMNSLRAEDTAVYYCARRDDYTSRDAFDYWGQGTLVTVSS VL: not shown
